Read-outs that look alike come from different tables or passages of the source. Numbered stars: 1 amine (or outer) side, 2 acyl side, 3 side chain; on linkers, the order of the positions; unused ones are H or OH. Bridge positions count the residues as written; N and C are the ends. Square brackets hold non-standard residues; d marks the D form. Ends that are not written are not given here. CSA‑2 = Cys(S-CH2CH2COOH), S-(2-carboxyethyl)-L-cysteine, O=C([C@H](CSCCC(=O)[*:3])N[*:1])[*:2]; CSA‑1 = Cys(S-CH2COOH), S-carboxymethyl-L-cysteine, O=C([C@H](CSCC(=O)[*:3])N[*:1])[*:2]; PhLac = O=C(O)[C@@H](O)Cc1ccccc1; NSG‑1 = not defined here; NSG‑2 = not defined here; Aib = CC(C)(N)C(=O)O
Columns and labels:
[1] = molecular target: human glucagon receptor (human) (UniProt P47871); assay: cell-based or functional assay
Sequence of human glucagon receptor (human) (P47871 26-477): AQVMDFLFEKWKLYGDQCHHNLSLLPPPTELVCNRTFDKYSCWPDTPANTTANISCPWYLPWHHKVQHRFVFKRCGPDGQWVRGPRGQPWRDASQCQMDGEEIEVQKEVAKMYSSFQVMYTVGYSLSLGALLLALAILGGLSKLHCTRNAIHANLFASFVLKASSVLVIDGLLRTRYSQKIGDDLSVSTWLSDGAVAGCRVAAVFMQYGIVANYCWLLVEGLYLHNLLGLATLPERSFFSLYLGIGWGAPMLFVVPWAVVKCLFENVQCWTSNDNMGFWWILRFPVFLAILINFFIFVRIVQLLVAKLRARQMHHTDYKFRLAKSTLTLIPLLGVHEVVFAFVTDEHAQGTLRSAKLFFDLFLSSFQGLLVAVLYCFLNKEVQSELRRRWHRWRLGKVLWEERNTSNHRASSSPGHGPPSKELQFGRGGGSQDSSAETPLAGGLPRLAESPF

[2] = molecular target: human GLP-1 receptor (human) (UniProt P43220); assay: cell-based or functional assay
Sequence of human GLP-1 receptor (human) (P43220 24-463): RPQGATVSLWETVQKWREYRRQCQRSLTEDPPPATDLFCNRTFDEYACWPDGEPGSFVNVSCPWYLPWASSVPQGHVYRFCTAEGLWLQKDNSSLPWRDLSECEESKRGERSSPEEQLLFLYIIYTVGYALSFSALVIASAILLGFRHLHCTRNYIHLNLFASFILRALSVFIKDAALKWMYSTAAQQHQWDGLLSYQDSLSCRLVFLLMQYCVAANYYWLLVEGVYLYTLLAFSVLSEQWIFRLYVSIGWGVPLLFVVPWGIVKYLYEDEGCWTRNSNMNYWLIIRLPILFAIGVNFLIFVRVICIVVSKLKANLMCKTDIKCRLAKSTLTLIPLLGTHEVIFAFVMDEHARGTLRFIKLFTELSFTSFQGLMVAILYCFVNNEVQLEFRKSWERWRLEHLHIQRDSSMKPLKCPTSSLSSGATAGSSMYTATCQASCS

[3] = molecular target: human glucagon receptor (human) (UniProt P47871); assay: cell-based or functional assay; remark: listed apart in the source
human glucagon receptor [4] = molecular target: T1, human glucagon receptor (human, UniProt P47871 26-477); assay: cell-based or functional assay
T1 sequence (P47871 26-477): as the sequence (P47871 26-477) above

human GLP-1 receptor [5] = molecular target: T2, human GLP-1 receptor (human, UniProt P43220 24-463); assay: cell-based or functional assay
human glucagon receptor [6] = molecular target: T1, human glucagon receptor; assay: cell-based or functional assay; remark: listed apart in the source
human GLP-1 receptor [7] = molecular target: T2, human GLP-1 receptor; assay: cell-based or functional assay; remark: listed apart in the source
human glucagon receptor [8] = molecular target: T1, human glucagon receptor; assay: cell-based or functional assay; remark: listed apart in the source
human glucagon receptor [9] = molecular target: T1, human glucagon receptor; assay: cell-based or functional assay; remark: listed apart in the source
human glucagon receptor [10] = molecular target: T1, human glucagon receptor; assay: cell-based or functional assay; remark: listed apart in the source
human glucagon receptor [11] = molecular target: T1, human glucagon receptor; assay: cell-based or functional assay; remark: listed apart in the source
human GLP-1 receptor [12] = molecular target: T2, human GLP-1 receptor; assay: cell-based or functional assay; remark: listed apart in the source
human GLP-1 receptor [13] = molecular target: T2, human GLP-1 receptor; assay: cell-based or functional assay; remark: listed apart in the source
human glucagon receptor [14] = molecular target: T1, human glucagon receptor; assay: cell-based or functional assay; remark: listed apart in the source
human GLP-1 receptor [15] = molecular target: T2, human GLP-1 receptor; assay: cell-based or functional assay; remark: listed apart in the source
human glucagon receptor [16] = molecular target: T1, human glucagon receptor; assay: SPA competition vs 125I-glucagon, receptor membranes

[PLA6, E9, E16K20(Lactam)]G(6-39) (peptide)
Glucagon antagonism IC50 (inhibit 0.2-0.8 nM glucagon) [1]: 20.5 nM

FTSEYSKYLDERRAQDFVQWLMNTGPSSGAPPPS (PLA at position 6; C-terminal amide) [[PLA6, E9, E16]G(6-39)]
GLP-1 agonism EC50 [2]: 1760 nM | Glucagon antagonism IC50 (inhibit 0.2-0.8 nM glucagon) [3]: 58.1 nM

B1: K40-chol G(6-40) (peptide)
peptide: FTSDYSKYLDERRAKDFVQWLMDTGPSSGAPPPSK
modifications: PLA at position 6; lactam bridge Glu16-Lys20; Lys40(COCH2CH2S-Chol) cholesterol conjugate; C-terminal amide
GLP-1 agonism EC50 [2]: 47 nM | Glucagon antagonism IC50 (inhibit 0.4 nM glucagon) [3]: 312 nM

Ac-[PhLac]TSEYSKYLDSRRAQDFVQWLMNT-NH2 [[Ac-PLA^6, E^9]Glucagon(aa6-29)-NH2]
IC50 (cAMP, inhibit 0.8 mM Glucagon) (human glucagon receptor [4]): 38.1 nM

B2: [PLA^5, E^9]Glucagon(aa5-29)-NH2 (peptide)
peptide: [PhLac]FTSEYSKYLDSRRAQDFVQWLMNT-NH2
modifications: N-terminus assumed
SMILES: CSCC[C@H](NC(=O)[C@H](CC(C)C)NC(=O)[C@H](Cc1c[nH]c2ccccc12)NC(=O)[C@H](CCC(N)=O)NC(=O)[C@@H](NC(=O)[C@H](Cc1ccccc1)NC(=O)[C@H](CC(=O)O)NC(=O)[C@H](CCC(N)=O)NC(=O)[C@H](C)NC(=O)[C@H](CCCNC(=N)N)NC(=O)[C@H](CCCNC(=N)N)NC(=O)[C@H](CO)NC(=O)[C@H](CC(=O)O)NC(=O)[C@H](CC(C)C)NC(=O)[C@H](Cc1ccc(O)cc1)NC(=O)[C@H](CCCCN)NC(=O)[C@H](CO)NC(=O)[C@H](Cc1ccc(O)cc1)NC(=O)[C@H](CCC(=O)O)NC(=O)[C@H](CO)NC(=O)[C@@H](NC(=O)[C@H](Cc1ccccc1)NC(=O)[C@@H](O)Cc1ccccc1)[C@@H](C)O)C(C)C)C(=O)N[C@@H](CC(N)=O)C(=O)N[C@H](C(N)=O)[C@@H](C)O
IC50 (cAMP, inhibit 0.8 mM Glucagon) (human glucagon receptor [4]): 328 nM

B3: [PLA^4, E^9]Glucagon(aa4-29)-NH2 (peptide)
peptide: [PhLac]TFTSEYSKYLDSRRAQDFVQWLMNT-NH2
modifications: N-terminus assumed
SMILES: CSCC[C@H](NC(=O)[C@H](CC(C)C)NC(=O)[C@H](Cc1c[nH]c2ccccc12)NC(=O)[C@H](CCC(N)=O)NC(=O)[C@@H](NC(=O)[C@H](Cc1ccccc1)NC(=O)[C@H](CC(=O)O)NC(=O)[C@H](CCC(N)=O)NC(=O)[C@H](C)NC(=O)[C@H](CCCNC(=N)N)NC(=O)[C@H](CCCNC(=N)N)NC(=O)[C@H](CO)NC(=O)[C@H](CC(=O)O)NC(=O)[C@H](CC(C)C)NC(=O)[C@H](Cc1ccc(O)cc1)NC(=O)[C@H](CCCCN)NC(=O)[C@H](CO)NC(=O)[C@H](Cc1ccc(O)cc1)NC(=O)[C@H](CCC(=O)O)NC(=O)[C@H](CO)NC(=O)[C@@H](NC(=O)[C@H](Cc1ccccc1)NC(=O)[C@@H](NC(=O)[C@@H](O)Cc1ccccc1)[C@@H](C)O)[C@@H](C)O)C(C)C)C(=O)N[C@@H](CC(N)=O)C(=O)N[C@H](C(N)=O)[C@@H](C)O
IC50 (cAMP, inhibit 0.8 mM Glucagon) (human glucagon receptor [4]): 84.4 nM

B4: [G4T5, E9, E16K20(Lactam), D28] G(4-29) (peptide)
peptide: GTFTSEYSKYLDERRAKDFVQWLMDT-NH2
modifications: lactam 13-17; N-terminus assumed
SMILES: CSCC[C@H](NC(=O)[C@H](CC(C)C)NC(=O)[C@H](Cc1c[nH]c2ccccc12)NC(=O)[C@H](CCC(N)=O)NC(=O)[C@@H](NC(=O)[C@H](Cc1ccccc1)NC(=O)[C@H](CC(=O)O)NC(=O)[C@@H]1CCCCNC(=O)CC[C@H](NC(=O)[C@H](CC(=O)O)NC(=O)[C@H](CC(C)C)NC(=O)[C@H](Cc2ccc(O)cc2)NC(=O)[C@H](CCCCN)NC(=O)[C@H](CO)NC(=O)[C@H](Cc2ccc(O)cc2)NC(=O)[C@H](CCC(=O)O)NC(=O)[C@H](CO)NC(=O)[C@@H](NC(=O)[C@H](Cc2ccccc2)NC(=O)[C@@H](NC(=O)CN)[C@@H](C)O)[C@@H](C)O)C(=O)N[C@@H](CCCNC(=N)N)C(=O)N[C@@H](CCCNC(=N)N)C(=O)N[C@@H](C)C(=O)N1)C(C)C)C(=O)N[C@@H](CC(=O)O)C(=O)N[C@H](C(N)=O)[C@@H](C)O
GLP-1 EC50 (human GLP-1 receptor [5]): 151 nM | Glucagon antagonism IC50 (inhibit 0.8 nM glucagon) (human glucagon receptor [6]): 12.7 nM | GLP-1 agonism EC50 (human GLP-1 receptor [7]): 151 nM

AEGTFTSEYSKYLDERRAKDFVQWLMDT-NH2 (lactam 15-19) [[A2E3, E9, E16K20(Lactam), D28]G(2-29)]
Glucagon IC50 (human glucagon receptor [8]): 63 nM | Glucagon antagonism IC50 (inhibit 0.2-0.8 nM glucagon) (human glucagon receptor [9]): 63.2 nM | Glucagon antagonism IC50 (inhibit 0.8 nM glucagon) (human glucagon receptor [6]): 63.2 nM | Glucagon antagonism IC50 (inhibit 0.8 nM glucagon) (human glucagon receptor [10]): 63.2 nM | Glucagon antagonism IC50 (inhibit 0.8 nM glucagon) (human glucagon receptor [11]): 151 nM

B5: [H1A2E3, E9, E16K20(Lactam), D28]G(1-29) (peptide)
peptide: HAEGTFTSEYSKYLDERRAKDFVQWLMDT-NH2
modifications: lactam 16-20; N-terminus assumed
SMILES: CSCC[C@H](NC(=O)[C@H](CC(C)C)NC(=O)[C@H](Cc1c[nH]c2ccccc12)NC(=O)[C@H](CCC(N)=O)NC(=O)[C@@H](NC(=O)[C@H](Cc1ccccc1)NC(=O)[C@H](CC(=O)O)NC(=O)[C@@H]1CCCCNC(=O)CC[C@H](NC(=O)[C@H](CC(=O)O)NC(=O)[C@H](CC(C)C)NC(=O)[C@H](Cc2ccc(O)cc2)NC(=O)[C@H](CCCCN)NC(=O)[C@H](CO)NC(=O)[C@H](Cc2ccc(O)cc2)NC(=O)[C@H](CCC(=O)O)NC(=O)[C@H](CO)NC(=O)[C@@H](NC(=O)[C@H](Cc2ccccc2)NC(=O)[C@@H](NC(=O)CNC(=O)[C@H](CCC(=O)O)NC(=O)[C@H](C)NC(=O)[C@@H](N)Cc2c[nH]cn2)[C@@H](C)O)[C@@H](C)O)C(=O)N[C@@H](CCCNC(=N)N)C(=O)N[C@@H](CCCNC(=N)N)C(=O)N[C@@H](C)C(=O)N1)C(C)C)C(=O)N[C@@H](CC(=O)O)C(=O)N[C@H](C(N)=O)[C@@H](C)O
Glucagon IC50 (human glucagon receptor [8]): 130 nM | GLP-1 EC50 (human GLP-1 receptor [5]): 0.2 nM | Glucagon antagonism IC50 (inhibit 0.2-0.8 nM glucagon) (human glucagon receptor [9]): 129 nM | GLP-1 agonism EC50 (human GLP-1 receptor [12]): 0.11 nM | Glucagon antagonism IC50 (inhibit 0.8 nM glucagon) (human glucagon receptor [6]): 129 nM | GLP-1 agonism EC50 (human GLP-1 receptor [7]): 0.11 nM | Glucagon antagonism IC50 (inhibit 0.8 nM glucagon) (human glucagon receptor [10]): 129 nM | GLP-1 agonism EC50 (human GLP-1 receptor [13]): 0.11 nM

HSQGTFTSDYARYLDARRAREFIKWLVRGRG [ANK2 (Bayer peptide)]
GLP-1 EC50 (human GLP-1 receptor [5]): 0.28 nM | GLP-1 agonism EC50 (human GLP-1 receptor [7]): 0.28 nM

[Aib]EGT[PhLac]TSDYSKYLDERRAKDFVQWLMDT-NH2 (lactam 15-19; also: PLA6 linked to Thr5 by an ester bond (depsipeptide)) [Aib depsi lactam G(2-29)]
Glucagon antagonism IC50 (inhibit 0.4 nM glucagon) (human glucagon receptor [14]): 11.8 nM | GLP-1 agonism EC50 (human GLP-1 receptor [15]): 5.83 nM

B6: [(CSA-1]^9] Glucagon(aa2-29)-NH2 (peptide)
peptide: SQGTFTS[CSA‑1]YSKYLDSRRAQDFVQWLMNT-NH2
modifications: N-terminus assumed
SMILES: CSCC[C@H](NC(=O)[C@H](CC(C)C)NC(=O)[C@H](Cc1c[nH]c2ccccc12)NC(=O)[C@H](CCC(N)=O)NC(=O)[C@@H](NC(=O)[C@H](Cc1ccccc1)NC(=O)[C@H](CC(=O)O)NC(=O)[C@H](CCC(N)=O)NC(=O)[C@H](C)NC(=O)[C@H](CCCNC(=N)N)NC(=O)[C@H](CCCNC(=N)N)NC(=O)[C@H](CO)NC(=O)[C@H](CC(=O)O)NC(=O)[C@H](CC(C)C)NC(=O)[C@H](Cc1ccc(O)cc1)NC(=O)[C@H](CCCCN)NC(=O)[C@H](CO)NC(=O)[C@H](Cc1ccc(O)cc1)NC(=O)[C@H](CSCC(=O)O)NC(=O)[C@H](CO)NC(=O)[C@@H](NC(=O)[C@H](Cc1ccccc1)NC(=O)[C@@H](NC(=O)CNC(=O)[C@H](CCC(N)=O)NC(=O)[C@@H](N)CO)[C@@H](C)O)[C@@H](C)O)C(C)C)C(=O)N[C@@H](CC(N)=O)C(=O)N[C@H](C(N)=O)[C@@H](C)O
notes: also called peptide no
IC50 (human glucagon receptor [16]): 12.7 nM

B7: [(CSA-2)^9] Glucagon(aa2-29)-NH2 (peptide)
peptide: SQGTFTS[CSA‑2]YSKYLDSRRAQDFVQWLMNT-NH2
modifications: N-terminus assumed
SMILES: CSCC[C@H](NC(=O)[C@H](CC(C)C)NC(=O)[C@H](Cc1c[nH]c2ccccc12)NC(=O)[C@H](CCC(N)=O)NC(=O)[C@@H](NC(=O)[C@H](Cc1ccccc1)NC(=O)[C@H](CC(=O)O)NC(=O)[C@H](CCC(N)=O)NC(=O)[C@H](C)NC(=O)[C@H](CCCNC(=N)N)NC(=O)[C@H](CCCNC(=N)N)NC(=O)[C@H](CO)NC(=O)[C@H](CC(=O)O)NC(=O)[C@H](CC(C)C)NC(=O)[C@H](Cc1ccc(O)cc1)NC(=O)[C@H](CCCCN)NC(=O)[C@H](CO)NC(=O)[C@H](Cc1ccc(O)cc1)NC(=O)[C@H](CSCCC(=O)O)NC(=O)[C@H](CO)NC(=O)[C@@H](NC(=O)[C@H](Cc1ccccc1)NC(=O)[C@@H](NC(=O)CNC(=O)[C@H](CCC(N)=O)NC(=O)[C@@H](N)CO)[C@@H](C)O)[C@@H](C)O)C(C)C)C(=O)N[C@@H](CC(N)=O)C(=O)N[C@H](C(N)=O)[C@@H](C)O
notes: also called peptide no
IC50 (human glucagon receptor [16]): 13.3 nM

SQGTFTS[NSG‑1]YSKYLDSRRAQDFVQWLMNT-NH2 (reading uncertain, also called peptide no) [[(NSG-1)^9] Glucagon(aa2-29)-NH2]
IC50 (human glucagon receptor [16]): 983 nM

SQGTFTS[NSG‑2]YSKYLDSRRAQDFVQWLMNT-NH2 (reading uncertain, also called peptide no) [[(NSG-2)^9] Glucagon(aa2-29)-NH2]
IC50 (human glucagon receptor [16]): 2350 nM
